Key:
[1] = target: T1, mouse CD3 on murine spleenocytes (mouse, UniProt P22646 22-189); assay: flow cytometry on murine spleenocytes (mouse CD3), PE anti-human Fc
T1 construct: whole, on cells; also called murine CD3-expressing murine spleenocytes; moCD3

[2] = target: T2, FAP on FAP-expressing HT1080-FAP cells (UniProt Q12884 1-760, limits assumed); assay: flow cytometry on FAP-expressing HT1080-FAP cells, PE anti-human Fc
T2 construct: whole, on cells

T1 sequence (P22646 22-189): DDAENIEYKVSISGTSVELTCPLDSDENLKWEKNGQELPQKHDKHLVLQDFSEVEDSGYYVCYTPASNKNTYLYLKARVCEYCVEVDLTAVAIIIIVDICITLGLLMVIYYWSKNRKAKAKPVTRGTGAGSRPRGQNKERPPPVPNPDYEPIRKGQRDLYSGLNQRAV

Binder | EC50 [1] [nM] | EC50 [2] [nM]
bivalent and bispecific eIg molecule targeting FAP and mouse CD3, molecule I (bispecific antibody, In molecule I the 2C11 VH sits on the 'light chain' and the VL on the Fc-bearing chain; also called eIg FAP × moCD3 I) light 1: DIQMTQSPSSLSASVGDRVTITCRASKSVSTSAYSYMHWYQQKPGKAPKLLIYLASNLESGVPSRFSGSGSGTDFTLTISSLQPEDFATYYCQHSRELPYTFGQGTKLEIKRRTVAAPSVFIFPPSDEQLKSGTASVVCLLNNFYPREAKVQWKVDNALQSGNSQESVTEQDSKDSTYSLSSTLTLSKADYEKHKVYACEVTHQGLSSPVTKSFNRGEC heavy 1: QVQLVQSGAEVKKPGASVKVSCKASGYTFTENIIHWVRQAPGQGLEWMGWFHPGSGSIKYNEKFKDRVTMTADTSTSTVYMELSSLRSEDTAVYYCARHGGTGRGAMDYWGQGTLVTVSSASTKGPSVFPLAPSSKSTSGGTAALGCLVKDYFPEPVTVSWNSGALTSGVHTFPAVLQSSGLYSLSSVVTVPSSSLGTQTYICNVNHKPSNTKVDKKVEPKSCGTDKTHTCPPCPAPPVAGPSVFLFPPKPKDTLMISRTPEVTCVVVDVSHEDPEVKFNWYVDGVEVHNAKTKPREEQYNSTYRVVSVLTVLHQDWLNGKEYKCKVSNKGLPSSIEKTISKAKGQPREPQVCTLPPSRDELTKNQVSLSCAVKGFYPSDIAVEWESNGQPENNYKTTPPVLDSDGSFFLVSKLTVDKSRWQQGNVFSCSVMHEALHNHYTQKSLSLSPGK light 2: EVQLVESGGGLVQPGKSLKLSCEASGFTFSGYGMHWVRQAPGRGLESVAYITSSSINIKYADAVKGRFTVSRDNAKNLLFLQMNILKSEDTAMYYCARFDWDKNYWGQGTMVTVSSDFTPPTVKILQSSSDGGGHFPPTIQLLCLVSGYTPGTIQITWLEDGQVMDVDLSTASTTQEGELASTQSELTLSQKHWLSDRTYTCQVTYQGHTFEDSTKKCADSN heavy 2: DIQMTQSPSSLPASLGDRVTINCQASQDISNYLNWYQQKPGKAPKLLIYYTNKLADGVPSRFSGSGSGRDSSFTISSLESEDIGSYYCQQYYNYPWTFGPGTKLEIKDFTPPTVKILQSSCDGGGHFPPTIQLLCLVSGYTPGTINITWLEDGQVMDVDLSTASTTQEGELASTQSELTLSQKHWLSDRTYTCQVTYQGHTFEDSTKKSADSNGTDKTHTCPPCPAPPVAGPSVFLFPPKPKDTLMISRTPEVTCVVVDVSHEDPEVKFNWYVDGVEVHNAKTKPREEQYNSTYRVVSVLTVLHQDWLNGKEYKCKVSNKGLPSSIEKTISKAKGQPREPQVYTLPPCRDELTKNQVSLWCLVKGFYPSDIAVEWESNGQPENNYKTTPPVLDSDGSFFLYSKLTVDKSRWQQGNVFSCSVMHEALHNHYTQKSLSLSPGK | 7.3 | 2.9
bivalent and bispecific eIg molecule targeting FAP and mouse CD3, molecule II (bispecific antibody, also called eIg FAP × moCD3 II; second molecule) light 1: DIQMTQSPSSLSASVGDRVTITCRASKSVSTSAYSYMHWYQQKPGKAPKLLIYLASNLESGVPSRFSGSGSGTDFTLTISSLQPEDFATYYCQHSRELPYTFGQGTKLEIKRRTVAAPSVFIFPPSDEQLKSGTASVVCLLNNFYPREAKVQWKVDNALQSGNSQESVTEQDSKDSTYSLSSTLTLSKADYEKHKVYACEVTHQGLSSPVTKSFNRGEC heavy 1: QVQLVQSGAEVKKPGASVKVSCKASGYTFTENIIHWVRQAPGQGLEWMGWFHPGSGSIKYNEKFKDRVTMTADTSTSTVYMELSSLRSEDTAVYYCARHGGTGRGAMDYWGQGTLVTVSSASTKGPSVFPLAPSSKSTSGGTAALGCLVKDYFPEPVTVSWNSGALTSGVHTFPAVLQSSGLYSLSSVVTVPSSSLGTQTYICNVNHKPSNTKVDKKVEPKSCGTDKTHTCPPCPAPPVAGPSVFLFPPKPKDTLMISRTPEVTCVVVDVSHEDPEVKFNWYVDGVEVHNAKTKPREEQYNSTYRVVSVLTVLHQDWLNGKEYKCKVSNKGLPSSIEKTISKAKGQPREPQVCTLPPSRDELTKNQVSLSCAVKGFYPSDIAVEWESNGQPENNYKTTPPVLDSDGSFFLVSKLTVDKSRWQQGNVFSCSVMHEALHNHYTQKSLSLSPGK light 2: DIQMTQSPSSLPASLGDRVTINCQASQDISNYLNWYQQKPGKAPKLLIYYTNKLADGVPSRFSGSGSGRDSSFTISSLESEDIGSYYCQQYYNYPWTFGPGTKLEIKDFTPPTVKILQSSSDGGGHFPPTIQLLCLVSGYTPGTIQITWLEDGQVMDVDLSTASTTQEGELASTQSELTLSQKHWLSDRTYTCQVTYQGHTFEDSTKKCADSN heavy 2: EVQLVESGGGLVQPGKSLKLSCEASGFTFSGYGMHWVRQAPGRGLESVAYITSSSINIKYADAVKGRFTVSRDNAKNLLFLQMNILKSEDTAMYYCARFDWDKNYWGQGTMVTVSSDFTPPTVKILQSSCDGGGHFPPTIQLLCLVSGYTPGTINITWLEDGQVMDVDLSTASTTQEGELASTQSELTLSQKHWLSDRTYTCQVTYQGHTFEDSTKKSADSNGTDKTHTCPPCPAPPVAGPSVFLFPPKPKDTLMISRTPEVTCVVVDVSHEDPEVKFNWYVDGVEVHNAKTKPREEQYNSTYRVVSVLTVLHQDWLNGKEYKCKVSNKGLPSSIEKTISKAKGQPREPQVYTLPPCRDELTKNQVSLWCLVKGFYPSDIAVEWESNGQPENNYKTTPPVLDSDGSFFLYSKLTVDKSRWQQGNVFSCSVMHEALHNHYTQKSLSLSPGK | 24.2 | 2.7

Reference: patent publication US20220372147A1 (UNIVERSIT T STUTTGART, published 2022)
